From paper PMC7261735 come the findings set out here.

What all share (assay): SPR; Biacore T200; recombinant human TNFα immobilized on a CM5 chip, antibody captured through binding to TNFα; association and dissociation globally fit to a 1:1 binding model; average of 3 intra-assay replicates per lot
(In general: In SPR one partner is held on a chip, and binding of the other changes the refractive index at the surface.)

The target of assay [1] is ABP 710.
The target of assay [2] is infliximab (EU).
Assay [3] concerns the target infliximab (US).

As usually defined, the Kd is the constant that tells how readily two partners part at equilibrium. Regarding FcγRIIIa (158V), the Kd in assay [1] was in the range of 68 to 80 nM.

On to FcγRIIIa (158V) (receptor), for which the Kd was 59 to 89 nM in assay [2] and 63 to 93 nM in assay [3].
